This series concerns ON(O)CCc1ccccc1. Nature of the series: cells, lysate or membranes. The settings on record: other: [3H]DA uptake, COS7 cells; pH 7.4; 37.0 °C.

In the case of “human DAT A480T mutant (Homo sapiens; A480T)”, the Km is listed as 1,930 nM.

The values above are taken from patent US10913711B2, “Potent and selective inhibitors of monoamine transporters; method of making; and use thereof” (priority 2013, dated 2021).
